According to IntAct's records for PubMed 22643122:

B1: Mitogen-activated protein kinase 4 (Arabidopsis thaliana (Mouse-ear cress)), Q39024 (parent)
chain: MSAESCFGSSGDQSSSKGVATHGGSYVQYNVYGNLFEVSRKYVPPLRPIGRGAYGIVCAATNSETGEEVAIKKIGNAFDNIIDAKRTLREIKLLKHMDHENVIAVKDIIKPPQRENFNDVYIVYELMDTDLHQIIRSNQPLTDDHCRFFLYQLLRGLKYVHSANVLHRDLKPSNLLLNANCDLKLGDFGLARTKSETDFMTEYVVTRWYRAPELLLNCSEYTAAIDIWSVGCILGETMTREPLFPGKDYVHQLRLITELIGSPDDSSLGFLRSDNARRYVRQLPQYPRQNFAARFPNMSAGAVDLLEKMLVFDPSRRITVDEALCHPYLAPLHDINEEPVCVRPFNFDFEQPTLTEENIKELIYRETVKFNPQDSV
partner: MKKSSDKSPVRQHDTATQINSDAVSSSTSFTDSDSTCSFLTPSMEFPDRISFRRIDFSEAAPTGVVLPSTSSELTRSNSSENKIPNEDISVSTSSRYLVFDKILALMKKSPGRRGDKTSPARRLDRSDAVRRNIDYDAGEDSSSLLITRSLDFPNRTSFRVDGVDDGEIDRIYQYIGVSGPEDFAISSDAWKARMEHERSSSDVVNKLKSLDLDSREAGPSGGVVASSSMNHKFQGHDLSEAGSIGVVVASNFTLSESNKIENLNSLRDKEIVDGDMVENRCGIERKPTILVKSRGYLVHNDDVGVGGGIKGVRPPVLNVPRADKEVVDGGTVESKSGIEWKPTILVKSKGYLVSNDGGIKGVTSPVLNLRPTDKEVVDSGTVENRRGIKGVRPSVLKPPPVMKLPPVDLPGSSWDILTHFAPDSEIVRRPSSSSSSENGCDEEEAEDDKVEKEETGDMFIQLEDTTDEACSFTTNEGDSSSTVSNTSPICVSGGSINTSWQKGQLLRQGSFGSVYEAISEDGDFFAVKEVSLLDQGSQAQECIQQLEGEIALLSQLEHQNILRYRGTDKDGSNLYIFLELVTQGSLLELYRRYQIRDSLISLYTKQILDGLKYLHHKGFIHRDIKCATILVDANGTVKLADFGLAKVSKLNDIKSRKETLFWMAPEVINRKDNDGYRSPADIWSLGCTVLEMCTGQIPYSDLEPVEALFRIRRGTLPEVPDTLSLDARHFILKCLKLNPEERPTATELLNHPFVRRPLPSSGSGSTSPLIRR

Variants of: B1
Conditions: with mp3k2_arath MEKK2, O81472

Variant	effect of a mutation on the interaction
MSAESCFGSSGDQSSSKGVATHGGSYVQYNVYGNLFEVSRKYVPPLRPIGRGAYGIVCAATNSETGEEVAIKKIGNAFDNIIDAKRTLREIKLLKHMDHENVIAVKDIIKPPQRENFNDVYIVYELMDTDLHQIIRSNQPLTDDHCRFFLYQLLRGLKYVHSANVLHRDLKPSNLLLNANCDLKLEDFGLARTKSETDFMTEYVVTRWYRAPELLLNCSEYTAAIDIWSVGCILGETMTREPLFPGKDYVHQLRLITELIGSPDDSSLGFLRSDNARRYVRQLPQYPRQNFAARFPNMSAGAVDLLEKMLVFDPSRRITVDEALCHPYLAPLHDINEEPVCVRPFNFDFEQPTLTEENIKELIYRETVKFNPQDSV [G186E]	disrupting interaction
